Consider 12 molecules from patent US20260146107A1 (ALLIGATOR BIOSCIENCE, published 2026).

The target of assay [1] is T1, biotinylated human CD40-mouse Fc (Ancell #504-030) (human, UniProt P25942 21-193, biotinylated (site not stated)).
T1 construct: Bought; also called hCD40-muIg; CD40mFc-biotin; not shown: mouse Ig Fc
Nature of the assay: Octet BLI, captured CD40mFc-biotin, bsAb in solution, 1:1 fit. The method, then:
Kinetic measurements were performed in the Octet RED96 platform using several different setups. […] Monomeric human CD40-His-Avi tag (Acro Biosystems #CD0-H5228), monomeric Human CEACAM5-His (R&D Systems #4128-CM-050) or monomeric Cynomolgus CEACAM5-His (Sino Biological #90891-C08H) were ½ serially diluted in 1× kinetic buffer (Sartorius) starting at 500 nM or 100 nM. […] Binding kinetics was studied in 1× kinetic buffer where association was allowed for 100 sec, 300 sec or 600 sec followed by dissociation for 100 sec, 300 sec or 3600 sec. Sensor tips were regenerated with 10 mM Glycine pH 1.7. Data generated were referenced by subtracting blank or parallel buffer blank, the baseline was aligned to the y-axis, inter-step correction by alignment against dissociation was performed and the data was smoothed by Savitzky-Golay filter in the data analysis software (v9.0.0.14). The processed data was fitted using a 1:1 Langmuir binding model with R² or X² as a measurement of fitting accuracy.
TABLE 12 Summary of kinetic profiles measured in Octet. Bispecific antibodies in solution (25-0.8 nM, 10-2 or 5-0.7 nM.) interacting with captured CD40mFc-biotin. Association was measured for 300 sec or 600 sec and dissociation was measured for 300 sec or 3600 sec
(In general: BLI is a label-free optical method that tracks binding on a fibre tip over time.)

Assay [2] deals with T2, human CEACAM1, recombinant (R&D Systems #2244-CM-050) (human, UniProt P13688 35-428).
T2 construct: also called hCEACAM-1
T2 sequence (looked up): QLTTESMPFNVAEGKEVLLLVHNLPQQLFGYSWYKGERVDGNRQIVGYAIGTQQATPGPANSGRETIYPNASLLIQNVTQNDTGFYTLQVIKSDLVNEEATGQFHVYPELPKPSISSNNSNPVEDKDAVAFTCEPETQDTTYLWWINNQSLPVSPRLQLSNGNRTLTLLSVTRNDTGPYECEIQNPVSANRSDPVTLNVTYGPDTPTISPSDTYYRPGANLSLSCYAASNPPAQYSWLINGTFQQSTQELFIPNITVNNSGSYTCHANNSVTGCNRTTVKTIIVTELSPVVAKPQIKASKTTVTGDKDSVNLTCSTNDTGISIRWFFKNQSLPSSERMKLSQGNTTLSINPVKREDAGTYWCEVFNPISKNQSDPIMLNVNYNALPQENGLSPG
Nature of the assay: ELISA, antigen coated at 0.5 µg/mL, IgG1 antibody at 10 µg/ml, anti-human kappa-HRP, luminescence. The method, then:
(§1) 96-well plates were coated with 0.5 μg/mL antigen, hCEACAM-5 (4128-CM-050, R&D Systems), hCEACAM-1 (2244-CM-050, R&D Systems), hCEACAM-6(3934-CM-050, R&D Systems) or CEACAM-8 (9639-CM-050, R&D Systems) in PBS over night at 4° C. After washing with PBS/0.05% Tween 20 (PBST), the plates were blocked with PBST, 2% BSA for at least 30 minutes at room temperature before a second round of washing. […] After washing, plates were incubated with 50 μl detection antibody (0.5 μg/ml HRP conjugated goat anti human-kappa light chain, #STAR127P, AbD Serotec). Finally, a final round of washing was performed and bound complexes detected using SuperSignal Pico Luminescent as substrate and luminescence signals were measured using Fluostar Optima.
(In general: An ELISA detects its analyte on a solid surface through an enzyme-linked reagent.)

Assay [3] deals with T3, human CEACAM5, recombinant (R&D Systems #4128-CM-050) (human, UniProt P06731 35-685).
T3 construct: Bought; coated in ELISA and used as monomeric analyte in Octet; also called hCEACAM-5; Human CEACAM5-His; not shown: His tag
T3 sequence (looked up): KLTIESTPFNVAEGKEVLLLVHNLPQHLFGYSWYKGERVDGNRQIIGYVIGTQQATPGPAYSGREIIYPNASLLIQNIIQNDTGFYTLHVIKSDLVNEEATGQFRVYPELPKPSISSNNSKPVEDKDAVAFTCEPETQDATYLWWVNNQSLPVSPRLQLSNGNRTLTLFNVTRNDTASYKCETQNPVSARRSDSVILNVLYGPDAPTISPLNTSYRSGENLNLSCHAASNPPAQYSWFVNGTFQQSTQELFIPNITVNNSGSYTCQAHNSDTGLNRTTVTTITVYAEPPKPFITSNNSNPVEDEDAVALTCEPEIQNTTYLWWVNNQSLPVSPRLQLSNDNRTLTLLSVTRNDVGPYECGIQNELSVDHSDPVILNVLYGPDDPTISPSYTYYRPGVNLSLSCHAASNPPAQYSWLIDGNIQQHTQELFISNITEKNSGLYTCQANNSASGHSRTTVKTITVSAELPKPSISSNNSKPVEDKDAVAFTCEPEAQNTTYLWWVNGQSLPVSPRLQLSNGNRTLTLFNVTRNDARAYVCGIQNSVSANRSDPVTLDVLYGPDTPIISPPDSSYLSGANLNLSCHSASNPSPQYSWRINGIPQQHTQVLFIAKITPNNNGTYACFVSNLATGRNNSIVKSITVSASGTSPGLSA
Described as above. The method, then:
as §1

T1 sequence (P25942 21-193): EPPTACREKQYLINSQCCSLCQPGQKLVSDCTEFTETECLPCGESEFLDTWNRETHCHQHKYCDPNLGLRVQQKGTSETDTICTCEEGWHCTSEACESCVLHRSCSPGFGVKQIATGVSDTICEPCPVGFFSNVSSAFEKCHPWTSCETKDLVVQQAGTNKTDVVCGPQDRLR

B1: AC_05293 (bispecific antibody)
heavy 1: not shown
light: DIQMTQSPSSLSASVGDRVTITCRASQSISSYLNWYQEKPGKAPKLLIYAASSLQSGVPSRFSGSGSGTDFTLTISSLQPEDFATYYCQQYGRNPPTFGQGTKLEIKRTVAAPSVFIFPPSDEQLKSGTASVVCYLNNFYPREAKVQWKVDNALQSGNSQESVTEQDSKDSTYSLWSTLTLSKADYEKHKVYACEVTHQGLSSPVTKSFNRGEC
heavy 2: EVQLLEQSGAELVRPGTSVKISCKASGYAFTNYWLGWVKERPGHGLEWIGDIFPGSGNIHYNEKFKGKATLTADKSSSTAYMQLSSLTFEDSAVYFCARLRNWDEPMDYWGQGTTVTVSSASTKGPSVFPLAPSSKSTSGGTAALGCLVKDYFPEPVTVSWNSGALTSGVHTFPAVLQSSGLYSLSSVVEVPSSSLGTQTYICNVNHKPSNTKVDKKVEPKSC
Usually Kd stands for the equilibrium constant for the complex coming apart. A low value points to a tighter complex. What is called koff is a measure of how fast the partners let go of each other. A lower koff goes with a long-lived complex. As usually defined, the kon is the rate constant with which the complex forms. Lower therefore signals slow association. For B1, in assay [1], the affinity, expressed as Kd, was 76 nM; the koff was 0.00062 s⁻¹; the kon turned out to be 8300 M⁻¹ s⁻¹.

B2: AC_05083 (antibody, V domains shown)
VH: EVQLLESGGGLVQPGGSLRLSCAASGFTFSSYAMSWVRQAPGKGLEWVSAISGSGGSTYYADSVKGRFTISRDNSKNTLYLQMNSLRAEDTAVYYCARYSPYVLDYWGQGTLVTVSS
VL: DIQMTQSPSSLSASVGDRVTITCRASQSIRGYLNWYQQKPGKAPKLLIYAASSLQSGVPSRFSGSGSGTDFTLTISSLQPEDFATYYCQQPSYPSLFTFGQGTKLEIK
Turning to B2, the binding result in assay [2] and in assay [3] was “binds” throughout.

B3: AC_05300 (bispecific antibody)
heavy 1: not shown
light: ELVMTQSPSSLTVTAGEKVTMSCKSSQSLLNSGNQKNYLTWYQEKPGQPPKLLIYWASTRESGVPDRFTGSGSGTDFTLTISSVQAEDLAVYYCQNDYSYPLTFGAGTKLEIKRTVAAPSVFIFPPSDEQLKSGTASVVCYLNNFYPREAKVQWKVDNALQSGNSQESVTEQDSKDSTYSLWSTLTLSKADYEKHKVYACEVTHQGLSSPVTKSFNRGEC
heavy 2: EVQLLESGGGLVQPGGSLRLSCAASGFTFSSYAMSWVREAPGKGLEWVSGIGSYGGGTYYADSVKGRFTISRDNSKNTLYLQMNSLRAEDTAVYYCARYVNFGMDYWGQGTLVTVSSASTKGPSVFPLAPSSKSTSGGTAALGCLVKDYFPEPVTVSWNSGALTSGVHTFPAVLQSSGLYSLSSVVEVPSSSLGTQTYICNVNHKPSNTKVDKKVEPKSC
notes: as AC_05293
With B3, in assay [1], the Kd was determined as 8.5 nM, the koff turned out to be 0.0046 s⁻¹ and the kon was found to be 540000 M⁻¹ s⁻¹.

B4: AC_05087 (antibody, V domains shown)
VH: EVQLLESGGGLVQPGGSLRLSCAASGFTFSSSYMGWVRQAPGKGLEWVSSIGSGSYSTSYADSVKGRFTISRDNSKNTLYLQMNSLRAEDTAVYYCARYPPVPFPPHLDYWGQGTLVTVSS
VL: DIQMTQSPSSLSASVGDRVTITCRASQSISSYLNWYQQKPGKAPKLLIYAASSLQSGVPSRFSGSGSGTDFTLTISSLQPEDFATYYCQQAGNPHTFGQGTKLEIK
For B4, the binding result in assay [2] and in assay [3] was “binds” each time.

B5: AC_05082 (antibody, V domains shown)
VH: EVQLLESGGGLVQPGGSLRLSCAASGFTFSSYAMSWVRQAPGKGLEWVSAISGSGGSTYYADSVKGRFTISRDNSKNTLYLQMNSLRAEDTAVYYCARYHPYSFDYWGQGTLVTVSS
VL: DIQMTQSPSSLSASVGDRVTITCRASQSISSYLNWYQQKPGKAPKLLIYAASSLQSGVPSRFSGSGSGTDFTLTISSLQPEDFATYYCQQAGNPHTFGQGTKLEIK
B5: the binding result in assay [2] and in assay [3] was “no binding (tested: 10 µg/ml)” in each case.

B6: AC_05084 (antibody, V domains shown)
VH: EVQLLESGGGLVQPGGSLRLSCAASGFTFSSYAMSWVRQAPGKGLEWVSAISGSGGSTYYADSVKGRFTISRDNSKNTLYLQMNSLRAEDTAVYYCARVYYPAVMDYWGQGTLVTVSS
VL: DIQMTQSPSSLSASVGDRVTITCRASQSISSYLNWYQQKPGKAPKLLIYAASSLQSGVPSRFSGSGSGTDFTLTISSLQPEDFATYYCQQVDGLFTFGQGTKLEIK
Consider B6, for which the binding result in assay [2] and in assay [3] was “no binding (tested: 10 µg/ml)” throughout.

B7: AC_05085 (antibody, V domains shown)
VH: EVQLLESGGGLVQPGGSLRLSCAASGFTFGSYYMYWVRQAPGKGLEWVSSIGGYSGSTYYADSVKGRFTISRDNSKNTLYLQMNSLRAEDTAVYYCARNTPFPGGSGLDYWGQGTLVTVSS
VL: DIQMTQSPSSLSASVGDRVTITCRASQSISSYLNWYQQKPGKAPKLLIYAASSLQSGVPSRFSGSGSGTDFTLTISSLQPEDFATYYCQQAGNPHTFGQGTKLEIK
As for B7, the binding result in assay [2] and in assay [3] was “no binding (tested: 10 µg/ml)” throughout.

B8: AC_05100 (antibody, V domains shown)
VH: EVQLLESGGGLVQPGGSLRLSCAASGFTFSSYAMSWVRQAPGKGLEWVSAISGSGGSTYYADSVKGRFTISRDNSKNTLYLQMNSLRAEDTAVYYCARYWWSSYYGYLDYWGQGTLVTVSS
VL: DIQMTQSPSSLSASVGDRVTITCRASQSISSYLNWYQQKPGKAPKLLIYAASSLQSGVPSRFSGSGSGTDFTLTISSLQPEDFATYYCQQAGNPHTFGQGTKLEIK
Turning to B8, the binding result in assay [2] and in assay [3] was “no binding (tested: 10 µg/ml)” each time.

B9: AC_05098 (antibody, V domains shown)
VH: EVQLLESGGGLVQPGGSLRLSCAASGFTFGSYYMSWVRQAPGKGLEWVSGISGYGYYTGYADSVKGRFTISRDNSKNTLYLQMNSLRAEDTAVYYCARNGYGVIDYWGQGTLVTVSS
VL: DIQMTQSPSSLSASVGDRVTITCRASQSIRDYLNWYQQKPGKAPKLLIYAASSLQSGVPSRFSGSGSGTDFTLTISSLQPEDFATYYCQQGTFPFTFGQGTKLEIK
As to B9, the binding result in assay [2] and in assay [3] was “no binding (tested: 10 µg/ml)” in each case.

B10: AC_05095 (antibody, V domains shown)
VH: EVQLLESGGGLVQPGGSLRLSCAASGFTFSSSYMGWVRQAPGKGLEWVSSIGSGSYSTSYADSVKGRFTISRDNSKNTLYLQMNSLRAEDTAVYYCARYPSVPFPSHLDYWGQGTLVTVSS
VL: DIQMTQSPSSLSASVGDRVTITCRASQSISSYLNWYQQKPGKAPKLLIYAASSLQSGVPSRFSGSGSGTDFTLTISSLQPEDFATYYCQQAGNPHTFGQGTKLEIK
For the molecule B10, the binding result in assay [2] and in assay [3] was “binds” in each case.

B11: AC_05092 (antibody, V domains shown)
VH: EVQLLESGGGLVQPGGSLRLSCAASGFTFSSSYMGWVRQAPGKGLEWVSSIGSGSYSTSYADSVKGRFTISRDNSKNTLYLQMNSLRAEDTAVYYCARYPSVPFPPHLDYWGQGTLVTVSS
VL: DIQMTQSPSSLSASVGDRVTITCRASQSISSDLNWYQQKPGKAPKLLIYAASSLQSGVPSRFSGSGSGTDFTLTISSLQPEDFATYYCQQAGNPHTFGQGTKLEIK
For the molecule B11, the binding result in assay [2] and in assay [3] was “no binding (tested: 10 µg/ml)” in each case.

B12: AC_05096 (antibody, human IgG1, kappa, V domains shown)
VH: EVQLLESGGGLVQPGGSLRLSCAASGFTFSSSYMGWVRQAPGKGLEWVSSIGSGSYSTSYADSVKGRFTISRDNSKNTLYLQMNSLRAEDTAVYYCARYPSVPFRPHLDYWGQGTLVTVSS
VL: DIQMTQSPSSLSASVGDRVTITCRASQSISSYLNWYQQKPGKAPKLLIYAASSLQSGVPSRFSGSGSGTDFTLTISSLQPEDFATYYCQQAGNPHTFGQGTKLEIKR
Regarding B12, the binding result in assay [2] is “no binding (tested: 10 µg/ml)”; in assay [3], “binds”.
